# Data reported in article PMC6265302, “Widespread bacterial lysine degradation proceeding via glutarate and L-2-hydroxyglutarate” (Nature Communications, 2018).
# Legend:
# purified protein [1] = substrate: NCCCCCN; test: purified protein; type: biochemical, Escherichia coli; conditions: coupled with PatD (rate-limiting dehydrogenase), 5 mM α-ketoglutarate, 500 µM NAD+, pH 8.0, room temperature
# purified protein [2] = substrate: NCCCCN; test: purified protein; type: biochemical, Escherichia coli; conditions: coupled with PatD (rate-limiting dehydrogenase), 5 mM α-ketoglutarate, 500 µM NAD+, pH 8.0, room temperature
# purified protein [3] = substrate: NCCCC(=O)O; test: purified protein; conditions: coupled with GabD (rate-limiting dehydrogenase), 5 mM α-ketoglutarate, 500 µM NADP+, pH 8.0, room temperature
# purified protein [4] = substrate: NCCCCC(=O)O; test: purified protein; type: biochemical, Escherichia coli; conditions: coupled with GabD (rate-limiting dehydrogenase), 5 mM α-ketoglutarate, 500 µM NADP+, pH 8.0, room temperature
# [5] = substrate: O=C(O)CCCC(=O)O; test: O2 consumption, Clark electrode; type: biochemical, Escherichia coli; conditions: 1 mM α-ketoglutarate, 4 µM Fe(NH4)2SO4, 400 µM ascorbate, MOPS pH 7.2, 30 °C
# [6] = substrate: O=C(O)CCC(=O)C(=O)O; test: O2 consumption, Clark electrode; type: biochemical, Escherichia coli; conditions: 5 mM glutarate, 4 µM Fe(NH4)2SO4, 400 µM ascorbate, MOPS pH 7.2, 30 °C
protein,measurement,setting,value
"PatA (Escherichia coli K-12) (protein, purified enzyme, cloning not described in main text; assayed coupled with PatD) MNRLPSSASALACSAHALNLIEKRTLDHEEMKALNREVIEYFKEHVNPGFLEYRKSVTAGGDYGAVEWQAGSLNTLVDTQGQEFIDCLGGFGIFNVGHRNPVVVSAVQNQLAKQPLHSQELLDPLRAMLAKTLAALTPGKLKYSFFCNSGTESVEAALKLAKAYQSPRGKFTFIATSGAFHGKSLGALSATAKSTFRKPFMPLLPGFRHVPFGNIEAMRTALNECKKTGDDVAAVILEPIQGEGGVILPPPGYLTAVRKLCDEFGALMILDEVQTGMGRTGKMFACEHENVQPDILCLAKALGGGVMPIGATIATEEVFSVLFDNPFLHTTTFGGNPLACAAALATINVLLEQNLPAQAEQKGDMLLDGFRQLAREYPDLVQEARGKGMLMAIEFVDNEIGYNFASEMFRQRVLVAGTLNNAKTIRIEPPLTLTIEQCELVIKAARKALAAMRVSVEEA",Km,purified protein [1],370 ± 50 µM
same,Km,purified protein [2],1430 ± 70 µM
"GabT (Escherichia coli K-12) (protein, full ORF, N-terminal 6xHis tag (pET28a), expressed in E. coli BL21(DE3); assayed coupled with GabD) MNSNKELMQRRSQAIPRGVGQIHPIFADRAENCRVWDVEGREYLDFAGGIAVLNTGHLHPKVVAAVEAQLKKLSHTCFQVLAYEPYLELCEIMNQKVPGDFAKKTLLVTTGSEAVENAVKIARAATKRSGTIAFSGAYHGRTHYTLALTGKVNPYSAGMGLMPGHVYRALYPCPLHGISEDDAIASIHRIFKNDAAPEDIAAIVIEPVQGEGGFYASSPAFMQRLRALCDEHGIMLIADEVQSGAGRTGTLFAMEQMGVAPDLTTFAKSIAGGFPLAGVTGRAEVMDAVAPGGLGGTYAGNPIACVAALEVLKVFEQENLLQKANDLGQKLKDGLLAIAEKHPEIGDVRGLGAMIAIELFEDGDHNKPDAKLTAEIVARARDKGLILLSCGPYYNVLRILVPLTIEDAQIRQGLEIISQCFDEAKQ",Km,purified protein [3],197 ± 27 µM
same,Km,purified protein [4],439 ± 29 µM
"CsiD (Escherichia coli K-12) (protein, full ORF, N-terminal 6xHis tag (pET28a), expressed in E. coli BL21(DE3); Fe(II); homotetramer) MNALTAVQNNAVDSGQDYSGFTLTPSAQSPRLLELTFTEQTTKQFLEQVAEWPVQALEYKSFLRFRVAKILDDLCANQLQPLLLKTLLNRAEGALLINAVGVDDVKQADEMVKLATAVAHLIGRSNFDAMSGQYYARFVVKNVDNSDSYLRQPHRVMELHNDGTYVEEITDYVLMMKIDEQNMQGGNSLLLHLDDWEHLDNYFRHPLARRPMRFAAPPSKNVSKDVFHPVFDVDQQGRPVMRYIDQFVQPKDFEEGVWLSELSDAIETSKGILSVPVPVGKFLLINNLFWLHGRDRFTPHPDLRRELMRQRGYFAYASNHYQTHQ",Km,[5],650 ± 20 µM
same,Km,[6],100 ± 7 µM
